Earlier results on one substance are cited in PMC10742149.

The data set concerns the target SIRP-α (Homo sapiens) (UniProt P78324).
Sequence of UniProt P78324 (P78324 31-373): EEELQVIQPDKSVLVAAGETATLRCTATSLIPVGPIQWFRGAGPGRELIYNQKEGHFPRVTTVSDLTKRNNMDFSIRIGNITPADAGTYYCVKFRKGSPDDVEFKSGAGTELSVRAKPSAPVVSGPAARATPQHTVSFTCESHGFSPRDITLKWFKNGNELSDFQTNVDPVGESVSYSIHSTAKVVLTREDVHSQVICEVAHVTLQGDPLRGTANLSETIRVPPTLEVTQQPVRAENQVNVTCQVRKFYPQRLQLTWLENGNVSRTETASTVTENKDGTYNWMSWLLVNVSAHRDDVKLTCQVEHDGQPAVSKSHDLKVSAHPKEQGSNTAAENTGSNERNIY

CD47 (from UniProt Q08722): the Kd (in general, the free concentration of one partner at which half of the binding sites on the other are occupied at equilibrium, for simple one-to-one binding) was 2000 nM.
